Test results published in a protein production outcome set (Wang et al. 2014).

Assay: label from the status in PepcDB records

| Sequence | protein production |
| --- | --- |
| MNYDMSSYFEDPEFKEALAKYEGMVENHTPAYFEADELIDIAEYYTLKGRHKDADKAIDLTLQLHPENTDALVFRIRSLMLQNKKEEAKVVAQLIANSTDRECRFLQADMLMEEDRIEEAEEIFKQLVMDEEYEVDTLLDIIQDYTNANQEEYAGQWVDCLFAHSDMQTLPKTNQRLRDVLCDYYSTFNKPDLAIPYLNMTLNEYPYSIEHWNELGKCHLQQCQYEEANEALDFALAIDDENTDSLTLKAFGYHQAGNLKESCDYYLRLANVSKNKTKAYLALAQIYLEMRDHASAISYIEKLINRKSGLTDYELAELYSDTALCHAYLGHTENGYKYINQALELNEHDAEIRIAAGRFFTIEAQKSDISEEEQENNLRNAEHQFTRALEFTPKEERFDVLFKIGSLYFDEHNFEYANQYFELINKEFPEDADATYFFLAYGYYHQQESASFMHYLAKIRKEIPDMYATMGTGDTILMTDTYFNEALRAIKEDVSTGKINLNKYL | failed |
| LADYSTEELEKIADKFRSDTSGIRGTKDFTSPEELYDELKKEIKKYHPSDDTSLVDKAYRVAYDAHKGQARKSGEPYIIHPLCVAIILAELELDKETIAAGLLHDVLEDTIMTMDEMRAEFGDDVAHLVDGVTKLKHLHLTDSTKDPKDKNADRLEMQAENLRKMFLAMAKDIRVILIKLADRLHNMRTLKYQSKEAQQRIARETQDIYCPIAQRLGISKIKIELEDLCMKYLYPDAYYDLVEKVALRKTERDTYIQGLVNDVKKYVSDAGIKAEIYGRAKHFFSIYKKMVNQDKTIDQIYDLFAIRILVDTIPDCYAVLGIIHEKYKPIPGRFKDYIAMPKQNMYQSLHTTLIGPSGQPFEIQIRTYEMHRTAEYGIAAHWKYKETNNGNATTTTVTEEEKLSWLRQILEWQQDMSDNKEFMTLLKSDLNLFSDNVFAFTPSGDVKNLPKGSTPIDFAYSIHSAVGNKMVGAKVNGKLVPIDYVIKNGDQIEIITSQNSKGPSRDWLKVVKSTQAKNKINQWFRSELKEENIQHGKDLIAAYAKAKGINFAEINKPEYQEKIRRKYGFHDWNSCLATVGHGGLKESQIVNRMYDEYKKDHVVPVTDADVLGSIAEKQQAAAGTQPEHKSKSGIVVHGLYDVAVHFSKCCNPVPGDEIVGFVTRGRGISIHRTDCVNIINLSKIEKDRLIEAEWQDTALMDNGAEYQADLKIFCHDRPGLLVDITKIFTEKEINISGIQSKTSKQGIATIEVFFNIKGRDQIKVLVEKLRQIESVIDVERTTG | failed |
| MSLELEWMSIDDLKLPSNVIDIIKNRGIKKLNPPQTEAVKKGLLDGNRLLLTSPTGSGKTLIAEMGIISFLLKNGGKAIYVTPLRALTNEKYLTFKDWESIGFKVAMTSGDYDTDDAWLKNYDIIITTYEKLDSLWRHRPDWLNEANYFVLDELHYLNDPERGPVVESVTIRAKRRNLLALSATISNYKQIAKWLGAEPVATNWRPVPLMEGVMYPERKKKEYTILFRDNTARKVHGDDAIIAYTLDSLSKNGQVLVFRNSRKMAESTALKIANYMNFVSLDEKAISEILKQLDDIEEGGSDEKELLKSLISKGVAYHHAGLSKALRDIIEESFRKRKIKVIVATPTLAAGVNLPARTVIIGDIYRFNRKIVGYYDEIPVMEYKQMSGRAGRPGFDQIGESIIVVRDKEDVDRVFKKYILSDVEPIESKLGSERAFYTFLLGILSAEGSLSEKQLEAFAYESLLAKSVVDVYFDRAIRWLSEHSFIREENNTFTLTNFGKRVADLYINPFTADIIRKGLEGYKASCEIAYLHLLAFTPDGPLVSVGRNEEEELIELLEDLECELLVEEPYEEDEYSLYLNALKVALIMKDWIDEVDEDTILGKYNIGSGDLRNIVETMDWLTYSAYHLSKELRLDDHSDKLRILNLRVTDGVKEELLELVQIGGVGRKRARLLYNNGIKGLGDVVMNPDRVRNLLGQKLGERVVQEAARLLNRFH | failed |
| THVVCSDSGLEVLYQSCDPLQDFGFSVEKCSKQLKSNINIRFGIILREDIKELFLDLALMSQGSSVLNFSYPICEAALPKFSFCGRRKGEQIYYAGPVNNPEFTIPQGEYQVLLELYTEKRSTVACANATIMCS | not failed |
| MDNKKLFVFIKYFTLVFMIVGIIFGGKEFNAQNITLMLILIINHQLRTFSLNKYIHKIISFILEIVLVVICNFWISGYLFTYLILLAIDANVMFKKFLASTFNVVIILIGVYFSFNYSLNYKIMNLGVSIIIIAVFYFNKYENEKKIEAQDLYDRLRISEEKLKKANRDLEMYASSVEELTLLRERNRISREIHDSVGHSLSTMVIQLGAIEKIIRKAPEKAELLTKNLRKFTQKSLDEVRAAVRAIKPKEFEEYEGILSIEELISNFKKMANIDVRLAFTKEKWSLNSDQSFVLYRIVQEFLSNSARHGRASRVDVIMAFSEKNLLVTLKDNGQGCQSIIEGVGMKSMRERVKELGGYFEYKTAPYEGFTVKIELAKREKLKVYSGGENNG | failed |
| MSCWKTINLVKDYGGMRIVLTAVSLMILFFIPEYLAMQLIHPQTVQRGDHALLFAGLLVAAIIAHKILHILPMISKKKLEKKIYWLKMRTWREIPKNMMLVSLLCPFLVITPVLFYAGAAMPSFAHYFCIISSIHFGYCLPDFLFAWKLIKAPKNCFVDQEADDFDILIQK | failed |
| MEKEMEDKEEFDEGEIEYTSYAGEHHLPLIMSLVDQELSEPYSIFTYRYFVYLWPQLCFLAFHKGKCVGTIVCKMGDHRQTFRGYIAMLVVIKPYRGRGIASELVTRAIKAMMESGCEEVTLEAEVSNKGALALYGRLGFIRAKRLYHYYLNGMDAFRLKLLFPKPRVPQIPSQVQTQQEYETFPRPRVP | failed |
| AIAPDSLYDSLECLSEKIEAEGLYTTFSSDKLVRRIKRSSETEKIILSRFLRARRFNVDSAFDSFLACLKFREAENVNSVGLDEFKNPLATFPFTTTGFCTFDGEPLLYGRASALDRFKIDPAIFHRGFISFLEFLGDTFEPSTMFVIIFDFTDFSPIRNVHFGCARDMLKVMQDFYPERLSKIFLVNYPSTLYGVYKIVSPFIDENTRSKLEWIPKNSLEQLLRYVSMEAIPYSIGGMAVYPVPPLSSQ | failed |
| STERRRDELSEEINNLREKVMKQSEENNNLQSQVQKLTEENTTLREQVEPTPEDEDDDIELRGAAAAAAPPPPIEEECPEDLPEKFDGNPDMLAPFMAQCQIFMEKSTRDFSVDRVRVCFVTSMMTGRAARWASAKLERSHYLMHNYPAFMMEMKHVFEDPQRREVAKRKIRRLRQGMGSVIDYSNAFQMIAQDLDWNEPALIDQYHEGLSDHIQEELSHLEVAKSLSALIGQCIHIERRLARAAAARKPRSPPRALVLPHIASHHQVDPTEPVGGARMRLTQEEKERRRKLNLCLYCGTGGHYADNCPAKASKSSPAGNSPAPL | not failed |
| MAASAHGSVWGPLRLGIPGLCCRRPPLGLYARMRRLPGPEVSGRSVAAASGPGAWGTDHYCLELLRKRDYEGYLCSLLLPAESRSSVFALRAFNVELARVKDSVSEKTIGLMRMQFWKKTVEDIYCDNPPHQPVAIELWKAVKRHNLTKRWLMKIVDEREKNLDDKAYRNIKELENYAENTQSSLLYLTLEILGIKDLHADHAASHIGKAQGIVTCLRATPYHGSRRKVFLPMDICMLHGVSQEDFLRRNQDKNVRDVIYDIASQAHLHLKHARSFHKTVPVKAFPAFLQTVSLEDFLKKIQRVDFDIFHPSLQQKNTLLPLYLYIQSWRKTY | failed |
| MQKIIDDSLELAKKLQDSISNHLSDQEKAFHSKMQKLLNNPENKVMLIELMDRSFRCLDNKARFEMIEHVLDKYKSREIFSPFEKVLLMGFLSFGKMLPDMSVPFFVNKIRSDTKAMVLDQEESQLKERILKRKNEKIILNVNFIGEEVLGEEEANARFEKYSQALKSNYIQYISIKITTIFSQINILDFEYSKKEIVKRLDALYALALEEEKKQGMPKFINLDMEEFRDLELTVESFMESIAKFDLNAGIVLQAYIPDSYEYLKKLHAFSKERVLKGLKPIKIRFVKGANMESEETIASVKDWALPTFSNKQDTDSNYNKMLDFVLEGDNYKYIHIGAASHNIFEIAYVYTRIHAINDPVVLEHFSFEMLEGMSLQASQELKEMHKLILYAPVCDEAHFNNAIAYLVRRLDENTSSDNFMKAFFNLKVGTSEWKDQEQRFLNSLKGIATLDNATHRTQDRNAKQSGHTTYPNHSFKNESDTDFILKANREWAKKVREKMRNAPILELYPEMDGRFEDPNLTPLEVFDRIHHKKIASVHLADKEAILKALEVAKSDKSRFSQKSFTEIHALMSQTAQLFRERRGDLIGISALEVGKTFAETDAEVSEAIDFLEFYPYSLRVLQEQNTKTQFTPKGVGVVIAPWNFPVGISVGTIAAPLATGNRVIYKPSSLSSVTGYKLCECFWDAGVPRDALIYLPSKGSDISEHLLRDESIQFAILTGGEDTAYKMLKANPTLALSAETGGKNATIVSKMADRDQAIKNVIHSAFSNSGQKCSATSLLVLEKEVYEDENFKKTLIDATLSLSVGDPFDFKNKIGALADKPNEKVIKAIDELKSYENYEIPVSFVNDNPYLMKPSIKYGTKKGDFTHQTELFTPILSVMEAKDLDEAIEIANSTGYGLTSALESLDEREWEYYLERIEAGNIYINKPTTGAIVLRQPFGGVKKSAVGFGRKVGIFNYITQFVNICQEEEDENALKNPLSEALENLTQKGYDEHTHELKRAIFMAKSYAYHYKHEFSQTKDYVKIRGEDNLFSYTKVKSVGYRITEKDTLSDMLGVALACLISQIPLTLSIENERTNKDLTFFLECLKALQASAPIVYESLQKFSEKLNTFNRVRYLKSDLDLLHEQASALGMVLATAKPCLNGRFELLYYHLERSVSISYHRYGNLGSRVLRQPTCHKSCCAEK | failed |
| MDLRRRQWFLSAILLSAALLIDPQFSTAATASENLVFEVRSKFAGKRVKDLGALRAHDVHRHSRLLSAIDIPLGGDSQPESIGLYFAKIGLGTPSRDFHVQVDTGSDILWVNCAGCIRCPRKSDLVELTPYDVDASSTAKSVSCSDNFCSYVNQRSECHSGSTCQYVIMYGDGSSTNGYLVKDVVHLDLVTGNRQTGSTNGTIIFGCGSKQSGQLGESQAAVDGIMGFGQSNSSFISQLASQGKVKRSFAHCLDNNNGGGIFAIGEVVSPKVKTTPMLSKSAHYSVNLNAIEVGNSVLELSSNAFDSGDDKGVIIDSGTTLVYLPDAVYNPLLNEILASHPELTLHTVQESFTCFHYTDKLDRFPTVTFQFDKSVSLAVYPREYLFQVREDTWCFGWQNGGLQTKGGASLTILGDMALSNKLVVYDIENQVIGWTNHNCSGGIQVKDEESGAIYTVGAHNLSWSSSLAITKLLTLVSLLIPFFCNVAL | not failed |
| MKKKMITALGVSAIILTNFVGSTYADSKIGVSVTAPYNKNQIAEWLEMHAKPLKTTNPNAPFNDLKPFKNMVGSASIVGLGEATHGAHEVFTMKNRIVNYLVSEKGFTNLVLEEGWDRALELDRYVLTGEGNPSQHLSPVFKTKEMLDLLNWIRQYNANPKHKSKVRIIGMDIQSVNENVYNNIIEYVKRTNSKLVPRIEEKIKGLIPVTKDMNTFESLTKEEKEKYISDAKQISAVLEENKSYLNGKSKEFAWIKQNARIIEQFTTMLTSPPDKPSDLFLKHDIAMYENAKWTEEHLGKTIVWGHNGHVSKTNMLPFVYPKVAGQYLAEYYGKRYVSIGTSVYEGQYNVKNSDGEFGPYGILKSDDPNSYNYIFGQVKKDQFFIDLRKANGVTKNWLNEQHPIFAGVTTEGPGIPKTVDISLGKAFDILVQIQKVSPSQLHQLEHHHHHH | failed |
| SRGPEPGPQPTMEGDVLDTLEALGYKGPLLEEQALTKAAEGGLSSPEFSELCIWLGSQIKSLCNLEESITSAGRDDLESFQLEISGFLKEMACPYSVLISGDIKDRLKKKEDCLKLLLFLSTELQASQILQNKKHKNSQLDKNSEVYQEVQAMFDTLGIPKSTTSDIPHMLNQVESKVKDILSKVQKNHVGKPLLKMDLNSEQAEQLERINDALSCEYECRRRMLMKRLDVTVQSFGWSDRAKVKTDDIARIYQPKRYALSPKTTITMAHLLAAREDLSKIIRTSSGTSREKTACAINKVGVSFSTVENELMISYLMFLQILVYFSFMSW | not failed |
| MVEAIIFDMDGVLFDTEKYYYDRRASFLGQKGISIDHLPPSFFIGGNTKQVWENILRDEYDKWDVSTLQEEYNTYKQNNPLPYKELIFPDVLKVLNEVKSQGLNIGLASSSVKADIFRALEENRLQAFFDIVLSGEEFKESKPNPEIYLTALKQLNVQASRALIIEDSEKGIAAGVAADVEVWAIRDNLFGMDQSAAKGLLDSLTDVLDLIK | not failed |
